Reference: patent US20190276796A1

T1: CD70 (on CD70+ 786-O target cells) (UniProt P32970)
T1 sequence (looked up): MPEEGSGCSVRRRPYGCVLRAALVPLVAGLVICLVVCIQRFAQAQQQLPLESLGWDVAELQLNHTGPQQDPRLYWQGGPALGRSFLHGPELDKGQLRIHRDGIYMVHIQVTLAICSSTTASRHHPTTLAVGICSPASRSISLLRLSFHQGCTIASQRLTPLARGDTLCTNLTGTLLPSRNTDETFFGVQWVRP

B1: control h1F6 antibody (humanized IgG1 anti-CD70 monoclonal antibody, from CHO DG44 cells cultured without fucose analog; core fucosylated) (antibody, INN chains, looked up, V domains shown)
VH: QVQLVQSGAEVKKPGASVKVSCKASGYTFTNYGMNWVRQAPGQGLKWMGWINTYTGEPTYADAFKGRVTMTRDTSISTAYMELSRLRSDDTAVYYCARDYGDYGMDYWGQGTTVTVSS
VL: DIVMTQSPDSLAVSLGERATINCRASKSVSTSGYSFMHWYQQKPGQPPKLLIYLASNLESGVPDRFSGSGSGTDFTLTISSLQAEDVAVYYCQHSREVPWTFGQGTKVEIK
B2: h1F6 antibody from host cells cultured in the presence of 100 µM alkynyl fucose peracetate (antibody, INN chains, looked up, IgG1, V domains shown)
VH: QVQLVQSGAEVKKPGASVKVSCKASGYTFTNYGMNWVRQAPGQGLKWMGWINTYTGEPTYADAFKGRVTMTRDTSISTAYMELSRLRSDDTAVYYCARDYGDYGMDYWGQGTTVTVSS
VL: DIVMTQSPDSLAVSLGERATINCRASKSVSTSGYSFMHWYQQKPGQPPKLLIYLASNLESGVPDRFSGSGSGTDFTLTISSLQAEDVAVYYCQHSREVPWTFGQGTKVEIK
modifications: produced with 100 µM alkynyl fucose
B3: h1F6 antibody from host cells cultured in the presence of 50 µM alkynyl fucose peracetate (non-core fucosylated anti-CD70 antibody) (antibody, INN chains, looked up, V domains shown)
VH: QVQLVQSGAEVKKPGASVKVSCKASGYTFTNYGMNWVRQAPGQGLKWMGWINTYTGEPTYADAFKGRVTMTRDTSISTAYMELSRLRSDDTAVYYCARDYGDYGMDYWGQGTTVTVSS
VL: DIVMTQSPDSLAVSLGERATINCRASKSVSTSGYSFMHWYQQKPGQPPKLLIYLASNLESGVPDRFSGSGSGTDFTLTISSLQAEDVAVYYCQHSREVPWTFGQGTKVEIK
modifications: non-core fucosylated (alkynyl fucose)

Target: T1, CD70 (on CD70+ 786-O target cells)
Assay: cell-based or functional assay

Compared with B1, B2 is 30-fold lower in half maximal lysis (EC50), ADCC 51Cr release assay: 9 ng/mL for the first, 0.3 ng/mL for the second.

B3 gave a half maximal lysis (EC50), ADCC 51Cr release assay of 0.5 ng/mL.

Compared with B1, B2 is higher in maximal specific lysis: 42.5 percent for the first, 54.8 percent for the second.

B3 gave a maximal specific lysis of 53.3 percent.
